According to PMC6769930, “Endoglin Protein Interactome Profiling Identifies TRIM21 and Galectin-3 as New Binding Partners” (Cells, 2019):
Values belong to the binder of their own block, whether it stands above or below them.

Molecular target: T1, recombinant human soluble endoglin (sEng; Glu26-Gly586) (human, UniProt P17813 26-586)
T1 construct: human endoglin (CD105), extracellular domain, Glu26-Gly586; The same bought protein was the probe of the array and the analyte of the BLI; also called recombinant human endoglin/CD105 protein; source: bought: R&D Systems (1097-EN), purified recombinant
T1 sequence (looked up): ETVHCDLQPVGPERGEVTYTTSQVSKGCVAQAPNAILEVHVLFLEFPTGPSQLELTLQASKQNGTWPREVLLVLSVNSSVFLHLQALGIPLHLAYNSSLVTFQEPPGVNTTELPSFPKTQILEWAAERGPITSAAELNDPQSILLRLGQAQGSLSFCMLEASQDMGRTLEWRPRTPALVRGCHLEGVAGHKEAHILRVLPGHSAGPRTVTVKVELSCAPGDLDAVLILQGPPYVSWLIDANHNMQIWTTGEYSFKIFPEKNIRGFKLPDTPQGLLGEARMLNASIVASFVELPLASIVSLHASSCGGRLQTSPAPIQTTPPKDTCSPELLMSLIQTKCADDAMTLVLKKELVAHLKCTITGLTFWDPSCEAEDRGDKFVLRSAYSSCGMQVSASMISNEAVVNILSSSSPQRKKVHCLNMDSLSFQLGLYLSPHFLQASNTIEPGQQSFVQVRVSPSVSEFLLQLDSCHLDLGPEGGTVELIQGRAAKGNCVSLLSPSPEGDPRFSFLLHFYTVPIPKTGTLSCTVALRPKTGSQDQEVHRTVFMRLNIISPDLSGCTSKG
Test: peptide or protein array; ProtoArray human protein Microarray v5.0 (over 9000 human proteins arrayed) probed with recombinant sEng in two replicates; detection with anti-endoglin mAb SN6h and HRP secondary antibody; hits with Z-score >=2.0 in both arrays
Conditions: both partners purified

binding result: binds
B1: Coiled-coil domain containing 55 (CCDC55), transcript variant 1 (natural protein, human, UniProt Q9H0G5 1-558, looked up)
chain: MAIPGRQYGLILPKKTQQLHPVLQKPSVFGNDSDDDDETSVSESLQREAAKKQAMKQTKLEIQKALAEDATVYEYDSIYDEMQKKKEENNPKLLLGKDRKPKYIHNLLKAVEIRKKEQEKRMEKKIQREREMEKGEFDDKEAFVTSAYKKKLQERAEEEEREKRAAALEACLDVTKQKDLSGFYRHLLNQAVGEEEVPKCSFREARSGIKEEKSRGFSNEVSSKNRIPQEKCILQTDVKVEENPDADSDFDAKSSADDEIEETRVNCRREKVIETPENDFKHHRSQNHSRSPSEERGHSTRHHTKGSRTSRGHEKREDQHQQKQSRDQENHYTDRDYRKERDSHRHREASHRDSHWKRHEQEDKPRARDQRERSDRVWKREKDREKYSQREQERDRQQNDQNRPSEKGEKEEKSKAKEEHMKVRKERYENNDKYRDREKREVGVQSSERNQDRKESSPNSRAKDKFLDQERSNKMRNMAKDKERNQEKPSNSESSLGAKHRLTEEGQEKGKEQERPPEAVSKFAKRNNEETVMSARDRYLARQMARVNAKTYIEKEDD
notes: human CCDC55, transcript variant 1; source: bought: ProtoArray human protein Microarray v5.0 (Life Technologies), individually purified and arrayed

binding result: binds
B2: Family with sequence similarity 126, member B (FAM126B) (natural protein, human, UniProt Q8IXS8 1-530, looked up)
chain: MLGTDRCVVEEWLSEFKALPDTQITSYAATLHRKKTLVPALYKVIQDSNNELLEPVCHQLFELYRSSEVRLKRFTLQFLPELMWVYLRLTVSRDRQSNGCIEALLLGIYNLEIADKDGNNKVLSFTIPSLSKPSIYHEPSTIGSMALTEGALCQHDLIRVVYSDLHPQRETFTAQNRFEVLSFLMLCYNSAIVYMPASSYQSLCRMGSRVCVSGFPRQHEKHWKELCGRIVLDPEFMVQLLTGVYYAMYNGQWDLGQEVLDDIIYRAQLELFSQPLLVANAMKNSLPFDAPDSTQEGQKVLKVEVTPTVPRISRTAITTASIRRHRWRREGAEGVNGGEESVNLNDADEGFSSGASLSSQPIGTKPSSSSQRGSLRKVATGRSAKDKETASAIKSSESPRDSVVRKQYVQQPTDLSVDSVELTPMKKHLSLPAGQVVPKINSLSLIRTASASSSKSFDYVNGSQASTSIGVGTEGGTNLAANNANRYSTVSLQEDRLGQAGEGKELLSPGAPLTKQSRSPSFNMQLISQV
notes: human FAM126B; source: bought: ProtoArray human protein Microarray v5.0 (Life Technologies), individually purified and arrayed

binding result: binds
B3: Origin recognition complex, subunit 6 like (yeast) (ORC6L) (natural protein, human, UniProt Q9Y5N6 1-252, looked up)
chain: MGSELIGRLAPRLGLAEPDMLRKAEEYLRLSRVKCVGLSARTTETSSAVMCLDLAASWMKCPLDRAYLIKLSGLNKETYQSCLKSFECLLGLNSNIGIRDLAVQFSCIEAVNMASKILKSYESSLPQTQQVDLDLSRPLFTSAALLSACKILKLKVDKNKMVATSGVKKAIFDRLCKQLEKIGQQVDREPGDVATPPRKRKKIVVEAPAKEMEKVEEMPHKPQKDEDLTQDYEEWKRKILENAASAQKATAE
notes: human origin recognition complex subunit 6; source: bought: ProtoArray human protein Microarray v5.0 (Life Technologies), individually purified and arrayed

binding result: binds
B4: RAD51 associated protein 1 (RAD51AP1) (natural protein, human, UniProt Q96B01-2 1-335, looked up)
chain: MVRPVRHKKPVNYSQFDHSDSDDDFVSATVPLNKKSRTAPKELKQDKPKPNLNNLRKEEIPVQEKTPKKRMALDDKLYQRDLEVALALSVKELPTVTTNVQNSQDKSIEKHGSSKIETMNKSPHISNCSVASDYLDLDKITVEDDVGGVQGKRKAASKAAAQQRKILLEGSDGDSANDTEPDFAPGEDSEDDSDFCESEDNDEDFSMRKSKVKEIKKKEVKVKSPVEKKEKKSKSKCNALVTSVDSAPAAVKSESQSLPKKVSLSSDTTRKPLEIRSPSAESKKPKWVPPAASGGSRSSSSPLVVVSVKSPNQSLRLGLSRLARVKPLHPNATST
notes: human RAD51 associated protein 1; source: bought: ProtoArray human protein Microarray v5.0 (Life Technologies), individually purified and arrayed

binding result: binds
B5: Potassium voltage-gated channel, shaker-related subfamily, beta member 1 (KCNAB1), transcript variant 1 (natural protein, human, UniProt Q14722-1 1-419, looked up)
chain: MLAARTGAAGSQISEENTKLRRQSGFSVAGKDKSPKKASENAKDSSLSPSGESQLRARQLALLREVEMNWYLKLCDLSSEHTTVCTTGMPHRNLGKSGLRVSCLGLGTWVTFGGQISDEVAERLMTIAYESGVNLFDTAEVYAAGKAEVILGSIIKKKGWRRSSLVITTKLYWGGKAETERGLSRKHIIEGLKGSLQRLQLEYVDVVFANRPDSNTPMEEIVRAMTHVINQGMAMYWGTSRWSAMEIMEAYSVARQFNMIPPVCEQAEYHLFQREKVEVQLPELYHKIGVGAMTWSPLACGIISGKYGNGVPESSRASLKCYQWLKERIVSEEGRKQQNKLKDLSPIAERLGCTLPQLAVAWCLRNEGVSSVLLGSSTPEQLIENLGAIQVLPKMTSHVVNEIDNILRNKPYSKKDYRS
notes: human KCNAB1, transcript variant 1; source: bought: ProtoArray human protein Microarray v5.0 (Life Technologies), individually purified and arrayed

binding result: binds
B6: HIRA interacting protein 3 (HIRIP3) (natural protein, human, UniProt Q9BW71-1 1-556, looked up)
chain: MAREKEMQEFTRSFFRGRPDLSTLTHSIVRRRYLAHSGRSHLEPEEKQALKRLVEEELLKMQVDEAASREDKLDLTKKGKRPPTPCSDPERKRFRFNSESESGSEASSPDYFGPPAKNGVAAEVSPAKEENPRRASKAVEESSDEERQRDLPAQRGEESSEEEEKGYKGKTRKKPVVKKQAPGKASVSRKQAREESEESEAEPVQRTAKKVEGNKGTKSLKESEQESEEEILAQKKEQREEEVEEEEKEEDEEKGDWKPRTRSNGRRKSAREERSCKQKSQAKRLLGDSDSEEEQKEAASSGDDSGRDREPPVQRKSEDRTQLKGGKRLSGSSEDEEDSGKGEPTAKGSRKMARLGSTSGEESDLEREVSDSEAGGGPQGERKNRSSKKSSRKGRTRSSSSSSDGSPEAKGGKAGSGRRGEDHPAVMRLKRYIRACGAHRNYKKLLGSCCSHKERLSILRAELEALGMKGTPSLGKCRALKEQREEAAEVASLDVANIISGSGRPRRRTAWNPLGEAAPPGELYRRTLDSDEERPRPAPPDWSHMRGIISSDGESN
notes: source: bought: ProtoArray human protein Microarray v5.0 (Life Technologies), individually purified and arrayed

binding result: binds
B7: Family with sequence similarity 39, member B (FAM39B) (natural protein, human, UniProt Q6VEQ5 1-465, looked up)
chain: MTPVRMQHSLAGQTYAVPLIQPDLRREEAVQQMADALQYLQKVSGDIFSRISQQVEQSRSQVQAIGEKVSLAQAKIEKIKGSKKAIKVFSSAKYPAPERLQEYGSIFTGAQDPGLQRRPRHRIQSKHRPLDERALQEKLKDFPVCVSTKPEPEDDAEEGLGGLPSNISSVSSLLLFNTTENLYKKYVFLDPLAGAVTKTHVMLGAETEEKLFDAPLSISKREQLEQQVPENYFYVPDLGQVPEIDVPSYLPDLPGIANDLMYIADLGPGIAPSAPGTIPELPTFHTEVAEPLKVDLQDGVLTPPPPPPPPPPAPEVLASAPPLPPSTAAPVGQGARQDDSSSSASPSVQGAPREVVDPSGGRATLLESIRQAGGIGKAKLRSMKERKLEKKKQKEQEQVRATSQGGHLMSDLFNKLVMRRKGISGKGPGAGEGPGGAFARVSDSIPPLPPPQQPQAEEDEDDWES
notes: human FAM39B; source: bought: ProtoArray human protein Microarray v5.0 (Life Technologies), individually purified and arrayed

binding result: binds
B8: Spliceosome-associated protein CWC15 homolog (HSPC148) (natural protein, human, UniProt Q9P013 1-229, looked up)
chain: MTTAARPTFEPARGGRGKGEGDLSQLSKQYSSRDLPSHTKIKYRQTTQDAPEEVRNRDFRRELEERERAAAREKNRDRPTREHTTSSSVSKKPRLDQIPAANLDADDPLTDEEDEDFEEESDDDDTAALLAELEKIKKERAEEQARKEQEQKAEEERIRMENILSGNPLLNLTGPSQPQANFKVKRRWDDDVVFKNCAKGVDDQKKDKRFVNDTLRSEFHKKFMEKYIK
notes: human spliceosome-associated protein CWC15 homolog; source: bought: ProtoArray human protein Microarray v5.0 (Life Technologies), individually purified and arrayed

binding result: binds
B9: Cortactin (CTTN), transcript variant 2 (natural protein, human, UniProt Q14247-3 1-513, looked up)
chain: MWKASAGHAVSIAQDDAGADDWETDPDFVNDVSEKEQRWGAKTVQGSGHQEHINIHKLRENVFQEHQTLKEKELETGPKASHGYGGKFGVEQDRMDKSAVGHEYQSKLSKHCSQVDSVRGFGGKFGVQMDRVDQSAVGFEYQGKTEKHASQKDYSSGFGGKYGVQADRVDKSAVGFDYQGKTEKHESQRDYSKGFGGKYGIDKDKVDKSAVGFEYQGKTEKHESQKDYVKGFGGKFGVQTDRQDKCALGWDHQEKLQLHESQKDYSKGFGGKYGVQKDRMDKNASTFEDVTQVSSAYQKTVPVEAVTSKTSNIRANFENLAKEKEQEDRRKAEAERAQRMAKERQEQEEARRKLEEQARAKTQTPPVSPAPQPTEERLPSSPVYEDAASFKAELSYRGPVSGTEPEPVYSMEAADYREASSQQGLAYATEAVYESAEAPGHYPAEDSTYDEYENDLGITAVALYDYQAAGDDEISFDPDDIITNIEMIDDGWWRGVCKGRYGLFPANYVELRQ
notes: as for B6
